Measured values published in patent US7585967 (VASGENE THERAPEUTICS, dated 2009).

What was measured:
[1] = molecular target: T1, Mouse EphB4/Fc (R & D Systems) (mouse, UniProt P54761 16-539); assay: immunofluorescence on frozen KS sections, FITC-labeled anti-human Fc antibody
T1 construct: Bought; also called EphB4/Fc fusion protein; not shown: Fc; detected with anti-human Fc / anti-human IgG-FITC
T1 sequence (looked up): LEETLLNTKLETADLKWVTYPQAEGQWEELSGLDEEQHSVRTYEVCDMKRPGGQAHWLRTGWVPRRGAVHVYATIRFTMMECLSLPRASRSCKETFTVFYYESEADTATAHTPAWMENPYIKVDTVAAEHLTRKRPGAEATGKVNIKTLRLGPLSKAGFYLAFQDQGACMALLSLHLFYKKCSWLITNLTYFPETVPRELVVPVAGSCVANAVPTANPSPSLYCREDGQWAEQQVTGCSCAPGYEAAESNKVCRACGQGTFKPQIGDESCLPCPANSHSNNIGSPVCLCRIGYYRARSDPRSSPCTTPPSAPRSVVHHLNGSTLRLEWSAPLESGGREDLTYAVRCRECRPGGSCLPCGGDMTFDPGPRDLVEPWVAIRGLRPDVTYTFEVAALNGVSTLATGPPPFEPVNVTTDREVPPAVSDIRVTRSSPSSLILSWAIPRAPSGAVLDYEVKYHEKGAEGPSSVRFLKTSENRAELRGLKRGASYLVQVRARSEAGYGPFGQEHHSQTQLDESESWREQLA
Excerpt: (A) In situ hybridization with antisense probes for ephrin B2 and EphB4 with corresponding H&E stained section to show tumor architecture. Dark blue color in the ISH indicates positive reaction for ephrin B2. No signal for EphB4 was detected in the Kaposi's sarcoma biopsy. For contrast, ISH signal for EphB4 is strong in squamous cell carcinoma tumor cells. Ephrin B2 was also detected in KS using EphB4-AP fusion protein (bottom left). (B) Detection of ephrin B2 with EphB4/Fc fusion protein. Adjacent sections were stained with H&E (left) to show tumor architecture, black rectangle indicates the area shown in the EphB4/Fc treated section (middle) detected with FITC-labeled anti-human Fc antibody as described in the methods section. As a control an adjacent section was treated with human Fc fragment (right). Specific signal arising from EphB4/Fc binding to the section is seen only in areas of tumor cells. (C) Co-expression of ephrin B2 and the HHV8 latency protein LANA1. […] Coexpression is seen as yellow color.
Immunofluorescence detection of EphrinB2 with EPHB4-Fc was done as follows. Frozen sections fixed in 4% paraformaldehyde and blocked with 20% FBS were incubated with 5 μg/ml EphB4/Fc (R&D Systems) for 1 h at RT. Sections were then incubated with 10 μg/ml rabbit anti-human IgG-FITC in PBS (Jackson ImmunoResearch Laboratories West Grove, Pa.) at RT for 1 hour. […]

[2] = molecular target: T2, B4ECv3NT protein (soluble extracellular domain of human EphB4 without epitope or purification tags) (human, UniProt P54760 16-537); assay: biochemical assays with B2EC-AP reagent
T2 construct: also called EphB4ECnt; B4EC-NT
T2 sequence: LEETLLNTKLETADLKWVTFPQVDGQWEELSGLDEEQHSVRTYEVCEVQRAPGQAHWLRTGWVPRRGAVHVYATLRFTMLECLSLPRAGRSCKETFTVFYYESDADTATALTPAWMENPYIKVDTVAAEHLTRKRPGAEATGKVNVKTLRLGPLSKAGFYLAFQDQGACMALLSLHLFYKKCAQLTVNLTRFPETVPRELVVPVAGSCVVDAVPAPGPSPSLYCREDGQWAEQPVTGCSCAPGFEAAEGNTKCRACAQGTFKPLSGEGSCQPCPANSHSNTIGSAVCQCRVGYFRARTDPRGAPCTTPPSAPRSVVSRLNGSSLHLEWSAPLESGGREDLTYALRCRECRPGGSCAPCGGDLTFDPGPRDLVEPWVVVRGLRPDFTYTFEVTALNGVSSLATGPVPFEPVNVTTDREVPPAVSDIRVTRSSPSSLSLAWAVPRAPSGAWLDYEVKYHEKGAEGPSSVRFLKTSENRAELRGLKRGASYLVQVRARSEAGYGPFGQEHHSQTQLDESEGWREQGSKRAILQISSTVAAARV

[3] = molecular target: T3, B4ECv3 protein (soluble extracellular domain of human EphB4 with V5 epitope tag and 6xHis tag on its … (human, UniProt P54760 16-537)); assay: B4ECv3 on Ni-NTA-agarose, B2-AP at 50 nM, PNPP colour
T3 construct: also called EphB4ECv3; hB4ECv3
T3 sequence: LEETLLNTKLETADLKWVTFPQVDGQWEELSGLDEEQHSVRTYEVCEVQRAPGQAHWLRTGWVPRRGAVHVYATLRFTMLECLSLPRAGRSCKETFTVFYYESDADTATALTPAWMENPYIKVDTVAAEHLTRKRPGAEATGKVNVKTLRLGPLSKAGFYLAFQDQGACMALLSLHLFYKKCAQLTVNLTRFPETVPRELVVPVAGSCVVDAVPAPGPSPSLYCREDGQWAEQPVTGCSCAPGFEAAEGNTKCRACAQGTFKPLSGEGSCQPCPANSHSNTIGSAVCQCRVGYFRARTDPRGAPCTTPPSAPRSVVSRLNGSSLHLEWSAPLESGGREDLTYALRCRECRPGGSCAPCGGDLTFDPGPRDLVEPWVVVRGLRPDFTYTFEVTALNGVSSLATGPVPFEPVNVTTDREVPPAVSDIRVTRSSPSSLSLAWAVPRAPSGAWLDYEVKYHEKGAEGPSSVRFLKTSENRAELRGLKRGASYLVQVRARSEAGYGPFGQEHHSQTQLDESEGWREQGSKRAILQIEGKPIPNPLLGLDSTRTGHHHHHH
Description: 10 µl of Ni-NTA-Agarose were incubated in microcentrifuge tubes with 50 µl of indicated amount of B4ECv3 diluted in binding buffer BB (20 mM Tris-HCl, 0.15 M NaCl, 0.1% bovine serum albumin pH 8) After incubation for 30 min on shaking platform, Ni-NTA beads were washed twice with 1.4 ml of BB, followed by application of 50 µl of B2-AP in the final concentration of 50 nM. Binding was performed for 30 min on shaking platform, and then tubes were centrifuged and washed one time with 1.4 ml of BB. Amount of precipitated AP was measured […] after application of PNPP.

[4] = molecular target: T4, B4-GCF1 protein (globular, Cys-rich and first FNIII domain of human EphB4, C-terminally 6xHis tagged) (human, UniProt P54760 16-427); assay: Ephrin B2-AP on B4 proteins immobilized on Ni2+-resin or on nitrocellulose membrane
T4 construct: Range is numbered on mature EphB4
T4 sequence: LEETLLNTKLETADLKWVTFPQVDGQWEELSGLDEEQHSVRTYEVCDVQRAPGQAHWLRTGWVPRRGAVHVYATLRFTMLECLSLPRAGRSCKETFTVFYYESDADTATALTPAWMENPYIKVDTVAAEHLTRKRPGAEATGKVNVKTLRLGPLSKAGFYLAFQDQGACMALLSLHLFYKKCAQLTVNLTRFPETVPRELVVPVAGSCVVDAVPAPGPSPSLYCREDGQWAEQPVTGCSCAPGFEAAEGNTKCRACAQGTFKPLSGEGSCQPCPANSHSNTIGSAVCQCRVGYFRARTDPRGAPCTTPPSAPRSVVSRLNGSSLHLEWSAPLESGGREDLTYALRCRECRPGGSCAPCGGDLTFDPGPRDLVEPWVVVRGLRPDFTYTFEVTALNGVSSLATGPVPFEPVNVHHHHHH
Description: (§1) To confirm ability of the purified recombinant proteins to bind Ephrin B2, they were tested in an in vitro binding assay. As expected, GC, GCF1 and GCF2, but not CF2 are binding the cognate ligand Ephrin B2 as confirmed by interaction between Ephrin B2-alkaline phosphatase (Ephrin B2-AP) fusion protein with the B4 proteins immobilized on Ni^2+-resin or on nitrocellulose membrane (FIG. 17).
(§2) To test ligand binding properties of the proteins, 10 µl of Ni-NTA-Agarose (Qiagen) were incubated in microcentrifuge tubes with 10-500 ng sample of a B4-ECD protein diluted in 0.5 ml of binding buffer BB (20 mM Tris-HCl, 0.15 M NaCl, 0.1% bovine serum albumin, pH 8). After incubation for 30 min on shaking platform, Ni-NTA beads were washed twice with 1.4 ml of BB, followed by addition of B2-AP fusion protein at concentration of 50 nM. Binding was performed for 30 min on a shaking platform. Tubes were centrifuged and washed once with 1.4 ml of BB. Amount of precipitated AP was measured colorimetrically at 420 nm after application of p-nitrophenyl phosphate (PNPP) and incubation for 5-30 min.

[5] = molecular target: T5, B4-GC protein (globular domain and Cys-rich domain of human EphB4, C-terminally 6xHis tagged) (human, UniProt P54760 16-327); assay: as above
T5 construct: Range is numbered on mature EphB4
T5 sequence: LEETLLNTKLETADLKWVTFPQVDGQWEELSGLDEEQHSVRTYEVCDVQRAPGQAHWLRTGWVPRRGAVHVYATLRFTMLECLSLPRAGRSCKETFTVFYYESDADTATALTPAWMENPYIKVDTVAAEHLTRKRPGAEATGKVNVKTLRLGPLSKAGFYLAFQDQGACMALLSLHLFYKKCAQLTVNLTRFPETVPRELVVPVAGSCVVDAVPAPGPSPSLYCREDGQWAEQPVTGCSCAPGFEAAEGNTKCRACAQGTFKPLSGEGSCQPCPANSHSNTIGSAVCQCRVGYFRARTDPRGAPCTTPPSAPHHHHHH
Description: as §1, §2

[6] = molecular target: T6, B4-GCF2 protein (complete extracellular part of human EphB4, C-terminally 6xHis tagged) (human, UniProt P54760 16-537); assay: as above
T6 construct: Range 1-522 is numbered on mature EphB4 (after leader removal)
T6 sequence: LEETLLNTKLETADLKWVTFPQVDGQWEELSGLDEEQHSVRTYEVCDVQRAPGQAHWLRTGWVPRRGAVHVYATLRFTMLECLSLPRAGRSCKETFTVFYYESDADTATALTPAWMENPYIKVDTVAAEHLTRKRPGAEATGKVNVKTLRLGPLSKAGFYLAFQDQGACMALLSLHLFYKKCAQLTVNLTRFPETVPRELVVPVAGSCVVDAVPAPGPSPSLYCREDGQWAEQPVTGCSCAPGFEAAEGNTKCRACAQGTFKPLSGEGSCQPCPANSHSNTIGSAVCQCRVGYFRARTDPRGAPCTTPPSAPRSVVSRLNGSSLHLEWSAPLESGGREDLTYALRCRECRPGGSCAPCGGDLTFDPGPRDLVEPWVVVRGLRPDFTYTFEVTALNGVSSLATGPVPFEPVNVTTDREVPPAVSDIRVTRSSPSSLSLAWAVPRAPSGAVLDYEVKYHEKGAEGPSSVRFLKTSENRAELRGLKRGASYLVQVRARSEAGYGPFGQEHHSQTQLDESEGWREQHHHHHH
Description: as §1, §2

Measured: binding result

B1: ephrin B2 on tumor cells of human Kaposi's sarcoma biopsy sections (ligand)
chain: IVLEPIYWNSSNSKFLPGQGLVLYPQIGDKLDIICPKVDSKTVGQYEYYKVYMVDKDQADRCTIKKENTPLLNCAKPDQDIKFTIKFQEFSPNLWGLEFQKNKDYYIISTSNGSLEGLDNQEGGVCQTRAMKILMKVGQDASSAGSTRNKDPTRRPELEAGTNGRSSTTSPFVKPNPGSSTDGNSAGHSGNNILGSEVALFAGIASGCIIFIVIIITLVVLLLKYRRRHRKHSPQHTTTLSLSTLATPKRSGNNNGSEPSDIIIPLRTADSVFCPHYEKVSGDYGHPVYIVQEMPPQSPANIYYKV
binds: [1]

B2: Ephrin B2-alkaline phosphatase (Ephrin B2-AP) fusion protein (protein fusion of Ephrin B2 ectodomain with placental alkaline phosphatase) (ligand)
chain: IVLEPIYWNSSNSKFLPGQGLVLYPQIGDKLDIICPKVDSKTVGQYEYYKVYMVDKDQADRCTIKKENTPLLNCAKPDQDIKFTIKFQEFSPNLWGLEFQKNKDYYIISTSNGSLEGLDNQEGGVCQTRAMKILMKVGQDASSAGSTRNKDPTRRPELEAGTNGRSSTTSPFVKPNPGSSTDGNSAGHSGNNILGSEVALFA
notes: also called B2EC-AP; B2ECAP; not shown: placental alkaline phosphatase from the pAPTag2 vector (GenHunter)
not listed: [1]
binds: all other assays above
